Where two headings read alike, the source gives them in different places.
What was measured:
Assay type in all cases: binding
SARS-CoV-2 gRNA = details: for target (unweighted spectral count of the protein in the RNP capture): LC-MS/MS, Probe I sample (first 199 lines of Table 2); for target (unweighted spectral count in RNP capture): Probe I capture, LC-MS/MS LFQ; for background (unweighted spectral count in control): no-probe control pull-down, used as background for Probe I
gRNA of HCoV-OC43 = details: for target (spectral count, OC43 Probe I RNP capture) / background (spectral count, no-probe control): type n_48_v: 48 hours post-infection; for target (spectral count, OC43 Probe I RNP capture): infected cells, unweighted spectral count; for background (spectral count, no-probe control): no-probe control on infected cells; for target (spectral count) / background (spectral count): type g_36_m, 36 hpi, Probe I; for target (spectral count): HCoV-OC43-infected HCT-8 cells; for background (spectral count): uninfected-probe control
HCoV-OC43 gRNA and sgRNA = details: for target (unweighted spectral count): OC43 Probe II, infected cells; for target (unweighted spectral count) / target (unweighted spectral count, OC43 Probe II capture): tested against no-probe control; for target (unweighted spectral count, OC43 Probe II) / background (unweighted spectral count, no-probe control): type n_48_v, 48 hpi; for target (unweighted spectral count, OC43 Probe II): OC43 Probe II capture on infected cells; for background (unweighted spectral count, no-probe control): no-probe control on infected cells; for target (unweighted spectral count, OC43 Probe II capture): FDR<10%
[1] = test system: SARS-CoV-2 gRNA and sgRNAs; details: for background (unweighted spectral count in control): no-probe control pull-down, used as background for Probe II

| Molecule | target (unweighted spectral count of the protein in the RNP capture) (SARS-CoV-2 gRNA) | target (spectral count, OC43 Probe I RNP capture) (gRNA of HCoV-OC43) | background (spectral count, no-probe control) (gRNA of HCoV-OC43) | target (unweighted spectral count) (HCoV-OC43 gRNA and sgRNA; 24 hpi (type n_24_v)) | target (unweighted spectral count, OC43 Probe II) (HCoV-OC43 gRNA and sgRNA) | background (unweighted spectral count, no-probe control) (HCoV-OC43 gRNA and sgRNA) | enrichment in SARS-CoV-2 Probe I RNP capture (SARS-CoV-2 gRNA) | enrichment in SARS-CoV-2 Probe II RNP capture [1] | background (unweighted spectral count in control) [1] | target (unweighted spectral count, OC43 Probe II capture) (HCoV-OC43 gRNA and sgRNA; 36 hpi, type n_36_v) | target (unweighted spectral count) (HCoV-OC43 gRNA and sgRNA; 12 hpi (type n_12_v)) | target (spectral count) (gRNA of HCoV-OC43) | background (spectral count) (gRNA of HCoV-OC43) | target (unweighted spectral count, OC43 Probe II capture) (HCoV-OC43 gRNA and sgRNA; 24 hpi, type n_24_v) | target (spectral count) (HCoV-OC43 gRNA and sgRNA; type s_36_m, HCoV-OC43-infected HCT-8 cells, 36 hpi, Probe II) | background (spectral count) (HCoV-OC43 gRNA and sgRNA; type s_36_m, uninfected-probe control, 36 hpi, Probe II) | target (unweighted spectral count in RNP capture) (SARS-CoV-2 gRNA) | background (unweighted spectral count in control) (SARS-CoV-2 gRNA) | target (unweighted spectral count in RNP capture) ([1]; Probe II capture, […], LC-MS/MS LFQ) |
| --- | --- | --- | --- | --- | --- | --- | --- | --- | --- | --- | --- | --- | --- | --- | --- | --- | --- | --- | --- |
| HNRNPD (protein, UniProt Q14103 2-355, looked up) Heterogeneous nuclear …: SEEQFGGDGAAAAATAAVGGSAGEQEGAMVAATQGAAAAAGSGAGTGGGTASGGTEGGSAESEGAKIDASKNEEDEGHSNSSPRHSEAATAQREEWKMFIGGLSWDTTKKDLKDYFSKFGEVVDCTLKLDPITGRSRGFGFVLFKESESVDKVMDQKEHKLNGKVIDPKRAKAMKTKEPVKKIFVGGLSPDTPEEKIREYFGGFGEVESIELPMDNKTNKRRGFCFITFKEEEPVKKIMEKKYHNVGLSKCEIKVAMSKEQYQQQQQWGSRGGFAGRARGRGGGPSQNWNQGYSNYWNQGYGNYGYNSQGYGGYGGYDYTGYNNYYGYGDYSNQQSGYGKVSRRGGHQNSYKPY | 37 | 26 | 2 | 17 | 36 | 2 |  |  |  |  |  |  |  |  |  |  |  |  |  |
| G3BP2: host protein of the core SARS-CoV-2 RNA interactome (protein, UniProt Q9UN86 2-482, looked up) Ras GTPase-activating …: VMEKPSPLLVGREFVRQYYTLLNKAPEYLHRFYGRNSSYVHGGVDASGKPQEAVYGQNDIHHKVLSLNFSECHTKIRHVDAHATLSDGVVVQVMGLLSNSGQPERKFMQTFVLAPEGSVPNKFYVHNDMFRYEDEVFGDSEPELDEESEDEVEEEQEERQPSPEPVQENANSGYYEAHPVTNGIEEPLEESSHEPEPEPESETKTEELKPQVEEKNLEELEEKSTTPPPAEPVSLPQEPPKAFSWASVTSKNLPPSGTVSSSGIPPHVKAPVSQPRVEAKPEVQSQPPRVREQRPRERPGFPPRGPRPGRGDMEQNDSDNRRIIRYPDSHQLFVGNLPHDIDENELKEFFMSFGNVVELRINTKGVGGKLPNFGFVVFDDSEPVQRILIAKPIMFRGEVRLNVEEKKTRAARERETRGGGDDRRDIRRNDRGPGGPRGIVGGGMMRDRDGRGPPPRGGMAQKLGSGRGTGQMEGRFTGQRR | 25 |  |  |  |  |  | enriched | enriched | 1 |  |  |  |  |  |  |  |  |  |  |
| HNRNPR (protein, UniProt O43390 2-633, looked up) Heterogeneous nuclear …: ANQVNGNAVQLKEEEEPMDTSSVTHTEHYKTLIEAGLPQKVAERLDEIFQTGLVAYVDLDERAIDALREFNEEGALSVLQQFKESDLSHVQNKSAFLCGVMKTYRQREKQGSKVQESTKGPDEAKIKALLERTGYTLDVTTGQRKYGGPPPDSVYSGVQPGIGTEVFVGKIPRDLYEDELVPLFEKAGPIWDLRLMMDPLSGQNRGYAFITFCGKEAAQEAVKLCDSYEIRPGKHLGVCISVANNRLFVGSIPKNKTKENILEEFSKVTEGLVDVILYHQPDDKKKNRGFCFLEYEDHKSAAQARRRLMSGKVKVWGNVVTVEWADPVEEPDPEVMAKVKVLFVRNLATTVTEEILEKSFSEFGKLERVKKLKDYAFVHFEDRGAAVKAMDEMNGKEIEGEEIEIVLAKPPDKKRKERQAARQASRSTAYEDYYYHPPPRMPPPIRGRGRGGGRGGYGYPPDYYGYEDYYDDYYGYDYHDYRGGYEDPYYGYDDGYAVRGRGGGRGGRGAPPPPRGRGAPPPRGRAGYSQRGAPLGPPRGSRGGRGGPAQQQRGRGSRGSRGNRGGNVGGKRKADGYNQPDSKRRQTNNQQNWGSQPIAQQPLQQGGDYSGNYGYNNDNQEFYQDTYGQQWK | 32 | 63 | 4 | 24 | 76 | 4 |  |  |  | 52 | 13 |  |  |  |  |  |  |  |  |
| FBL: host protein, UniProt P22087 (protein, UniProt P22087 1-321, looked up) rRNA 2'-O-methyltransferase …: MKPGFSPRGGGFGGRGGFGDRGGRGGRGGFGGGRGRGGGFRGRGRGGGGGGGGGGGGGRGGGGFHSGGNRGRGRGGKRGNQSGKNVMVEPHRHEGVFICRGKEDALVTKNLVPGESVYGEKRVSISEGDDKIEYRAWNPFRSKLAAAILGGVDQIHIKPGAKVLYLGAASGTTVSHVSDIVGPDGLVYAVEFSHRSGRDLINLAKKRTNIIPVIEDARHPHKYRMLIAMVDVIFADVAQPDQTRIVALNAHTFLRNGGHFVISIKANCIDSTASAEAVFASEVKKMQQENMKPQEQLTLEPYERDHAVVVGVYRPPPKVKN | 5 | 9 | 2 |  |  |  |  |  |  | 11 |  | 10 | 1 | 4 | 11 | 1 |  |  |  |
| SRSF5: host protein, UniProt Q13243 (protein, UniProt Q13243 1-272, looked up) Serine/arginine-rich splicing …: MSGCRVFIGRLNPAAREKDVERFFKGYGRIRDIDLKRGFGFVEFEDPRDADDAVYELDGKELCSERVTIEHARARSRGGRGRGRYSDRFSSRRPRNDRRNAPPVRTENRLIVENLSSRVSWQDLKDFMRQAGEVTFADAHRPKLNEGVVEFASYGDLKNAIEKLSGKEINGRKIKLIEGSKRHSRSRSRSRSRTRSSSRSRSRSRSRSRKSYSRSRSRSRSRSRSKSRSVSRSPVPEKSQKRGSSSRSKSPASVDRQRSRSRSRSRSVDSGN |  |  |  |  | 12 | 2 |  |  |  | 10 |  | 8 | 1 | 4 |  |  | 5 | 1 |  |
| HNRNPUL1: host protein, UniProt Q9BU32 (protein, UniProt Q9BUJ2 1-856, looked up) Heterogeneous nuclear …: MDVRRLKVNELREELQRRGLDTRGLKAELAERLQAALEAEEPDDERELDADDEPGRPGHINEEVETEGGSELEGTAQPPPPGLQPHAEPGGYSGPDGHYAMDNITRQNQFYDTQVIKQENESGYERRPLEMEQQQAYRPEMKTEMKQGAPTSFLPPEASQLKPDRQQFQSRKRPYEENRGRGYFEHREDRRGRSPQPPAEEDEDDFDDTLVAIDTYNCDLHFKVARDRSSGYPLTIEGFAYLWSGARASYGVRRGRVCFEMKINEEISVKHLPSTEPDPHVVRIGWSLDSCSTQLGEEPFSYGYGGTGKKSTNSRFENYGDKFAENDVIGCFADFECGNDVELSFTKNGKWMGIAFRIQKEALGGQALYPHVLVKNCAVEFNFGQRAEPYCSVLPGFTFIQHLPLSERIRGTVGPKSKAECEILMMVGLPAAGKTTWAIKHAASNPSKKYNILGTNAIMDKMRVMGLRRQRNYAGRWDVLIQQATQCLNRLIQIAARKKRNYILDQTNVYGSAQRRKMRPFEGFQRKAIVICPTDEDLKDRTIKRTDEEGKDVPDHAVLEMKANFTLPDVGDFLDEVLFIELQREEADKLVRQYNEEGRKAGPPPEKRFDNRGGGGFRGRGGGGGFQRYENRGPPGGNRGGFQNRGGGSGGGGNYRGGFNRSGGGGYSQNRWGNNNRDNNNSNNRGSYNRAPQQQPPPQQPPPPQPPPQQPPPPPSYSPARNPPGASTYNKNSNIPGSSANTSTPTVSSYSPPQPSYSQPPYNQGGYSQGYTAPPPPPPPPPAYNYGSYGGYNPAPYTPPPPPTAQTYPQPSYNQYQQYAQQWNQYYQNQGQWPPYYGNYDYGSYSGNTQGGTSTQ |  | 11 | 1 | 8 | 11 | 1 |  |  |  |  | 4 | 13 | 2 |  |  |  | 5 | 1 |  |
| RBMS1 (protein, UniProt P29558 1-406, looked up) RNA-binding motif, …: MGKVWKQQMYPQYATYYYPQYLQAKQSLVPAHPMAPPSPSTTSSNNNSSSSSNSGWDQLSKTNLYIRGLPPHTTDQDLVKLCQPYGKIVSTKAILDKTTNKCKGYGFVDFDSPAAAQKAVSALKASGVQAQMAKQQEQDPTNLYISNLPLSMDEQELENMLKPFGQVISTRILRDSSGTSRGVGFARMESTEKCEAVIGHFNGKFIKTPPGVSAPTEPLLCKFADGGQKKRQNPNKYIPNGRPWHREGEVRLAGMTLTYDPTTAAIQNGFYPSPYSIATNRMITQTSITPYIASPVSAYQVQSPSWMQPQPYILQHPGAVLTPSMEHTMSLQPASMISPLAQQMSHLSLGSTGTYMPATSAMQGAYLPQYAHMQTTAVPVEEASGQQQVAVETSNDHSPYTFQPNK | 11 |  |  |  |  |  |  |  | 1 |  |  |  |  |  |  |  |  |  | 15 |
| RBMX (protein, UniProt P38159 1-391, looked up) RNA-binding motif protein, X …: MVEADRPGKLFIGGLNTETNEKALEAVFGKYGRIVEVLLMKDRETNKSRGFAFVTFESPADAKDAARDMNGKSLDGKAIKVEQATKPSFESGRRGPPPPPRSRGPPRGLRGGRGGSGGTRGPPSRGGHMDDGGYSMNFNMSSSRGPLPVKRGPPPRSGGPPPKRSAPSGPVRSSSGMGGRAPVSRGRDSYGGPPRREPLPSRRDVYLSPRDDGYSTKDSYSSRDYPSSRDTRDYAPPPRDYTYRDYGHSSSRDDYPSRGYSDRDGYGRDRDYSDHPSGGSYRDSYESYGNSRSAPPTRGPPPSYGGSSRYDDYSSSRDGYGGSRDSYSSSRSDLYSSGRDRVGRQERGLPPSMERGYPPPRDSYSSSSRGAPRGGGRGGSRSDRGGGRSRY | 6 | 17 | 1 | 6 | 20 | 1 |  |  |  | 12 | 4 |  |  |  |  |  |  |  |  |

From US20230407373A1 (priority 2020, published 2023)
